From US20170247418A1
Read-outs that look alike come from different tables or passages of the source.

Columns and labels:
[1] = target: biotinylated eboIZN39IQ
[2] = target: biotinylated eboIZN39IQ; test: SPR (ProteOn XPR36), eboC24 flowed over biotin-eboIZN39IQ, pH 5.8

For IEPHDWTKNITDKIDQIIHDFVDK (modifications not checked) [eboC24], which Kd [1] is on record?
The Kd was 310 nM.

And the Kd [2]?
The Kd was 300 nM.
